Data on five molecules can be found in patent publication US20160002619A1 (CORNELL UNIVERSITY, published 2016).

Data set [1] deals with the molecule itself. The data set is described as follows: SEC-MALS, self-association. The text has this: FIGS. 4A-F define the oligomeric species of GAC mutants. In particular, multi-angle light scattering profiles of WT-GAC (FIG. 4A), D391K-GAC (FIG. 4B), K316E-D391K-R459E-GAC (FIG. 4C), and K316E-GAC (FIG. 4D) were obtained following SEC and subsequent MALS analysis, where elution of each species was monitored using refractive index (left axis). Upon elution, light scattering data was collected and then used to calculate the molecular weight and polydispersity for the species eluted (right axis). Reference lines for the molecular weights of the monomer, dimer, and tetramer forms of GAC are included at 58 kD, 116 kD, and 230 kD respectively. […]
Purified GAC and GAC mutants were subjected to analytical size exclusion chromatography on a Superdex 200 10/300 GL column (GE Healthcare) equilibrated with 20 mM Tris-HCl pH 8.5, 200 mM NaCl for experiments in the absence of inorganic phosphate and 20 mM Tris-HCl pH 8.5, 200 mM NaCl, 50 mM K₂HPO₄ for experiments in the presence of inorganic phosphate at a temperature of 4° C. and flow rate of 0.4 ml/min. […] RMS radius and mass distribution (polydispersity) was analyzed using the ASTRA software using monomeric BSA (Sigma) to normalize the light scattering signal.
(Size exclusion chromatography separates by hydrodynamic size, large species first.)

Data set [2] deals with the molecule itself. The data set is described as follows: preparative Superdex200 gel filtration, self-association.
Data set [3] deals with the molecule itself. Briefly: analytical gel filtration (Superdex 200 10/300 GL), self-association. The protocol:
FIGS. 3A-C illustrate that WT GAC accesses monomer, dimer, and larger oligomeric species in a concentration and phosphate dependent manner.
Purified GAC and GAC mutants were subjected to analytical size exclusion chromatography on a Superdex 200 10/300 GL column (GE Healthcare) equilibrated with 20 mM Tris-HCl pH 8.5, 200 mM NaCl for experiments in the absence of inorganic phosphate and 20 mM Tris-HCl pH 8.5, 200 mM NaCl, 50 mM K₂HPO₄ for experiments in the presence of inorganic phosphate at a temperature of 4° C. and flow rate of 0.4 ml/min. Protein concentrations were prepared to be either 5 mg/mL or 0.5 mg/mL and centrifuged at 10,000×g for 10 minutes prior to injecting 200 μL of each sample. The same protocol was followed for MALS analysis. Briefly, 50 μL samples of 0.5, 5, or 10 mg/mL GAC was injected onto a WTC-030S5 size exclusion column (Wyatt technology) coupled to a static 18-angle light scattering detector (DAWN HELEOS-II) and a refractive index detector (OptiLab T-rEX, Wyatt Technology) kept at 23° C. The flow rate was kept at 1 mL/min. RMS radius and mass distribution (polydispersity) was analyzed using the ASTRA software using monomeric BSA (Sigma) to normalize the light scattering signal.

Data set [4] concerns the target T1, ALEXA FLUOR 488-labeled wild type mouse KGA (kidney type glutaminase isoform 1, residues 72-674) (mouse, UniProt D3Z7P3 72-674, ALEXA FLUOR 488 succinimidyl ester covalently attached to a lysine amino group (exact residue not given)).
T1 construct: Recombinant; His-tag cleaved with thrombin
T1 sequence: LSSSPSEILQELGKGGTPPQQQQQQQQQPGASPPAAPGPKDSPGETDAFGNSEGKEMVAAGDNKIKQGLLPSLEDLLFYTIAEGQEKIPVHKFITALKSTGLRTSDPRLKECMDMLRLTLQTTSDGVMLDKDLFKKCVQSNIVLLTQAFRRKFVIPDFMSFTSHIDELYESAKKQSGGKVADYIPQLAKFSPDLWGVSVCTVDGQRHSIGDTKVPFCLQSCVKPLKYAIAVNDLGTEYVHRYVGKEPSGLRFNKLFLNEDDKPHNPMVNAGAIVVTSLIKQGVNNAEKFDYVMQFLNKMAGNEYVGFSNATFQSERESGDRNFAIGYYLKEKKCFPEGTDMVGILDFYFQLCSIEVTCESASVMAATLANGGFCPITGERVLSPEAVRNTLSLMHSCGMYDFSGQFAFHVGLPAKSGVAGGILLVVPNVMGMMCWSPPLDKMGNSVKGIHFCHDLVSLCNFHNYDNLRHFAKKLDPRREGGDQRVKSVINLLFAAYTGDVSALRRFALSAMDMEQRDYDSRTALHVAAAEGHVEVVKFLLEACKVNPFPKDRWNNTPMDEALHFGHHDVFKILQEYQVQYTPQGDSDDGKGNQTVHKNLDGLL
Briefly: FRET time course: quenching of 10 nM 488-KGA fluorescence by QSY 9-KGA, then 10-fold excess unlabeled WT-KGA [panel a]. The protocol: FIGS. 9A-B illustrate that the alternate splice variant KGA behaves like GAC in a FRET assay. […] After 5 minutes, the appropriate volume of 33.25 μM (for concentrations up to 200 nM labeled protein) or 69.5 μM (for concentrations above 200 nM labeled protein) unlabeled WT-KGA was added to make the final concentration of unlabeled KGA to be ten-times the concentration of labeled KGA.

B1: unlabeled wild type mouse GAC (glutaminase C, residues 72-603) (enzyme)
chain: LSSSPSEILQELGKGGTPPQQQQQQQQQPGASPPAAPGPKDSPGETDAFGNSEGKEMVAAGDNKIKQGLLPSLEDLLFYTIAEGQEKIPVHKFITALKSTGLRTSDPRLKECMDMLRLTLQTTSDGVMLDKDLFKKCVQSNIVLLTQAFRRKFVIPDFMSFTSHIDELYESAKKQSGGKVADYIPQLAKFSPDLWGVSVCTVDGQRHSIGDTKVPFCLQSCVKPLKYAIAVNDLGTEYVHRYVGKEPSGLRFNKLFLNEDDKPHNPMVNAGAIVVTSLIKQGVNNAEKFDYVMQFLNKMAGNEYVGFSNATFQSERESGDRNFAIGYYLKEKKCFPEGTDMVGILDFYFQLCSIEVTCESASVMAATLANGGFCPITGERVLSPEAVRNTLSLMHSCGMYDFSGQFAFHVGLPAKSGVAGGILLVVPNVMGMMCWSPPLDKMGNSVKGIHFCHDLVSLCNFHNYDNLRHFAKKLDPRREGGDQRHSFGPLDYESLQQELALKDTVWKKVSPESSDDTSTTVVYRMESLGERS
notes: Recombinant; His-tag cleaved with thrombin; The oligomeric state depends on concentration and phosphate; also called WT-GAC; WT GAC
Turning to B1, the “concentration dependent activation of WT-GAC (glutaminase activity, two-step assay, no phosphate)” value was “The quenching was shown to be concentration dependent with the resultant FRET titration curve strongly correlating with the concentration dependent activation of WT-GAC”; the “glutaminase specific activity (µM Glu/µM GAC min) of 50 nM WT-GAC, two-step assay, 20 mM glutamine, phosphate varied” value is “specific activity (filled circles) rises from about 500 near 3 mM phosphate to about 5000 at 20 mM and 8000 at 45 mM; it is flat at about 8700 from 67 to 150 mM”; the “glutaminase specific activity (µM Glu/µM GAC min), two-step assay, 20 mM glutamine, no phosphate” value was “specific activity (filled circles) rises from about 100 at 50 nM GAC to about 290 at 230 nM, 410 at 510 nM and about 460-470 at 770 and 1150 nM, lying on the FRET points”. Besides, in data set [1], the binding result is listed as “binds”.

B2: unlabeled mouse GAC K316E/D391K/R459E (constitutive monomer mutant) (enzyme)
chain: LSSSPSEILQELGKGGTPPQQQQQQQQQPGASPPAAPGPKDSPGETDAFGNSEGKEMVAAGDNKIKQGLLPSLEDLLFYTIAEGQEKIPVHKFITALKSTGLRTSDPRLKECMDMLRLTLQTTSDGVMLDKDLFKKCVQSNIVLLTQAFRRKFVIPDFMSFTSHIDELYESAKKQSGGKVADYIPQLAKFSPDLWGVSVCTVDGQRHSIGDTKVPFCLQSCVKPLKYAIAVNDLGTEYVHRYVGEEPSGLRFNKLFLNEDDKPHNPMVNAGAIVVTSLIKQGVNNAEKFDYVMQFLNKMAGNEYVGFSNATFQSERESGKRNFAIGYYLKEKKCFPEGTDMVGILDFYFQLCSIEVTCESASVMAATLANGGFCPITGERVLSPEAVENTLSLMHSCGMYDFSGQFAFHVGLPAKSGVAGGILLVVPNVMGMMCWSPPLDKMGNSVKGIHFCHDLVSLCNFHNYDNLRHFAKKLDPRREGGDQRHSFGPLDYESLQQELALKDTVWKKVSPESSDDTSTTVVYRMESLGERS
notes: also called K316E-D391K-R459E-GAC; monomeric GAC (K316E-D391K-R459E)
Take B2: the “concentration dependent activation (glutaminase activity, 20 mM glutamine, no phosphate)” value is given as “no concentration dependent activation was observed of purified GAC mutants”. For the same molecule, the binding result in data set [2] is listed as “no binding”.

B3: unlabeled mouse GAC D391K (constitutive dimer mutant) (enzyme)
chain: LSSSPSEILQELGKGGTPPQQQQQQQQQPGASPPAAPGPKDSPGETDAFGNSEGKEMVAAGDNKIKQGLLPSLEDLLFYTIAEGQEKIPVHKFITALKSTGLRTSDPRLKECMDMLRLTLQTTSDGVMLDKDLFKKCVQSNIVLLTQAFRRKFVIPDFMSFTSHIDELYESAKKQSGGKVADYIPQLAKFSPDLWGVSVCTVDGQRHSIGDTKVPFCLQSCVKPLKYAIAVNDLGTEYVHRYVGKEPSGLRFNKLFLNEDDKPHNPMVNAGAIVVTSLIKQGVNNAEKFDYVMQFLNKMAGNEYVGFSNATFQSERESGKRNFAIGYYLKEKKCFPEGTDMVGILDFYFQLCSIEVTCESASVMAATLANGGFCPITGERVLSPEAVRNTLSLMHSCGMYDFSGQFAFHVGLPAKSGVAGGILLVVPNVMGMMCWSPPLDKMGNSVKGIHFCHDLVSLCNFHNYDNLRHFAKKLDPRREGGDQRHSFGPLDYESLQQELALKDTVWKKVSPESSDDTSTTVVYRMESLGERS
notes: also called D391K-GAC
With B3, the “concentration dependent activation (glutaminase activity, 20 mM glutamine, no phosphate)” value is listed as “no concentration dependent activation was observed of purified GAC mutants”. Moreover, the binding result in data set [3] is on record as “binds”.

B4: Δ72 K316E-GAC (enzyme)
glutaminase C subunit: LSSSPSEILQELGKGGTPPQQQQQQQQQPGASPPAAPGPKDSPGETDAFGNSEGKEMVAAGDNKIKQGLLPSLEDLLFYTIAEGQEKIPVHKFITALKSTGLRTSDPRLKECMDMLRLTLQTTSDGVMLDKDLFKKCVQSNIVLLTQAFRRKFVIPDFMSFTSHIDELYESAKKQSGGKVADYIPQLAKFSPDLWGVSVCTVDGQRHSIGDTKVPFCLQSCVKPLKYAIAVNDLGTEYVHRYVGEEPSGLRFNKLFLNEDDKPHNPMVNAGAIVVTSLIKQGVNNAEKFDYVMQFLNKMAGNEYVGFSNATFQSERESGDRNFAIGYYLKEKKCFPEGTDMVGILDFYFQLCSIEVTCESASVMAATLANGGFCPITGERVLSPEAVRNTLSLMHSCGMYDFSGQFAFHVGLPAKSGVAGGILLVVPNVMGMMCWSPPLDKMGNSVKGIHFCHDLVSLCNFHNYDNLRHFAKKLDPRREGGDQRHSFGPLDYESLQQELALKDTVWKKVSPESSDDTSTTVVYRMESLGERS
notes: Unlabeled single mutant of the mouse GAC construct
For B4, the binding result in data set [1] is “binds”.

B5: QSY 9-labeled wild type mouse KGA (kidney type glutaminase isoform 1, residues 72-674) (enzyme)
chain: LSSSPSEILQELGKGGTPPQQQQQQQQQPGASPPAAPGPKDSPGETDAFGNSEGKEMVAAGDNKIKQGLLPSLEDLLFYTIAEGQEKIPVHKFITALKSTGLRTSDPRLKECMDMLRLTLQTTSDGVMLDKDLFKKCVQSNIVLLTQAFRRKFVIPDFMSFTSHIDELYESAKKQSGGKVADYIPQLAKFSPDLWGVSVCTVDGQRHSIGDTKVPFCLQSCVKPLKYAIAVNDLGTEYVHRYVGKEPSGLRFNKLFLNEDDKPHNPMVNAGAIVVTSLIKQGVNNAEKFDYVMQFLNKMAGNEYVGFSNATFQSERESGDRNFAIGYYLKEKKCFPEGTDMVGILDFYFQLCSIEVTCESASVMAATLANGGFCPITGERVLSPEAVRNTLSLMHSCGMYDFSGQFAFHVGLPAKSGVAGGILLVVPNVMGMMCWSPPLDKMGNSVKGIHFCHDLVSLCNFHNYDNLRHFAKKLDPRREGGDQRVKSVINLLFAAYTGDVSALRRFALSAMDMEQRDYDSRTALHVAAAEGHVEVVKFLLEACKVNPFPKDRWNNTPMDEALHFGHHDVFKILQEYQVQYTPQGDSDDGKGNQTVHKNLDGLL
modifications: QSY 9 succinimidyl ester covalently attached to a lysine amino group (exact residue not given)
notes: Recombinant; His-tag cleaved with thrombin; also called QSY 9-KGA
As to B5, the binding result in data set [4] is recorded as “binds”.
